Results reported in patent US20110138496, “POLYPEPTIDE FOR IMPROVING TOLERANCE TO IRON DEFICIENCY IN PLANTS, AND USE THEREOF” (published 2011).

Legend:
[1] = target: T1, AK072874 B3-domain fragment, MBP fusion (Oryza sativa, UniProt Q7XKC5 Q7XKC5:151-433); assay: competition; 30-fold excess mutated IDE1 competitors; CATGC specifically recognized; conditions: tags: MBP (pMAL-c2)
T1 sequence: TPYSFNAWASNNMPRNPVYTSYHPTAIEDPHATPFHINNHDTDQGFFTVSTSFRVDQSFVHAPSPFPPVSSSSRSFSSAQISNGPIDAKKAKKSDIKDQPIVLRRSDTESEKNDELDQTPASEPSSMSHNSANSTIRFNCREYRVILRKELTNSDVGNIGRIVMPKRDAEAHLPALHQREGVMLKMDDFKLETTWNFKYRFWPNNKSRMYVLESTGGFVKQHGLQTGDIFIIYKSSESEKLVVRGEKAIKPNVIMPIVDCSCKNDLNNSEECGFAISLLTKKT
Protocol: (§1) Next, the following operation was carried out for gel shift assay. First, partial ORFs containing a B3 DNA-binding domains of the respective candidate proteins were obtained by use of the following primers: a primer including the sequences shown in, respectively, SEQ ID NOS: 52 (forward) and 53 (reverse), for the 501st-726th amino acids of OsVP1; a primer including the sequences shown in, respectively, SEQ ID NOS: 54 (forward) and 55 (reverse), for the 141st-362nd amino acids of AK107456; a primer including the sequences shown in, respectively, SEQ ID NOS: 56 (forward) and 57 (reverse), for the 151st-433rd amino acids of AK072874; a primer including the sequences shown in, respectively, SEQ ID NOS: 58 (forward) and 59 (reverse), for the 1st-289th amino acids of AK109920; and a primer including the sequences shown in, respectively, SEQ ID NOS: 60 (forward) and 61 (reverse), for the 287th-672nd amino acids of AK101356. Then, each of the partial ORFs was inserted into pMAL-c2 (New England Biolabs) so as to be fused in frame to a maltose-binding protein (MBP) gene. By using a plasmid thus obtained, a fused protein of each of the candidate proteins and the MBP was produced in accordance with manufacturer's instructions. […]

[2] = target: T2, IDEF1 (AK107456) B3-domain fragment, MBP fusion (Oryza sativa, UniProt Q6Z1Z3 SEQ:141-362); assay: as above; conditions: tags: MBP (pMAL-c2)
T2 chain: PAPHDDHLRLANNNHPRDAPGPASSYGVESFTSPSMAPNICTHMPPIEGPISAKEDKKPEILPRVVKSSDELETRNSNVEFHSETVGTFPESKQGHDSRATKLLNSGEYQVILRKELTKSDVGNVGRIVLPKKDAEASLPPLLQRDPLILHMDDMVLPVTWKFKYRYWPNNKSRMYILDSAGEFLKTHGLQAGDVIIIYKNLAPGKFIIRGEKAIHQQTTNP
Protocol: as §1

[3] = target: T3, IDEF2 NAC domain, MBP fusion (Oryza sativa); assay: EMSA; 500 ng fusion protein; competition with 30- or 50-fold excess mutants shows CA[A/C]G(TTT) recognized; conditions: tags: MBP (pMAL-c2); label: labeled
T3 chain: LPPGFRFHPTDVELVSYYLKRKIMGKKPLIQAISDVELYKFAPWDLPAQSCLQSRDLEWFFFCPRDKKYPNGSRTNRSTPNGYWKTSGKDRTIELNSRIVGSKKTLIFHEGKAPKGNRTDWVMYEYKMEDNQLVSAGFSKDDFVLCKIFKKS
Protocol: Then, specific binding of IDEF2 to IDE2 was confirmed by the EMSA method. An IDEF2 NAC domain amplified by a primer including the base sequences shown in, respectively, SEQ ID NOS: 64 and 65, was cloned to a pMAL-c2 vector, and was used to produce an IDEF2-MBP fused protein. Then, a labeled […] including the base sequence (SEQ ID NO: 41) including IDE2 was incubated with 500 ng of the IDEF2-MBP fused protein.
Next, competition experiments were carried out by addition of 30-fold or 50-fold excess unlabeled competitors. FIG. 10 and (a) of FIG. 12 show mutations introduced into polynucleotide fragments, which were used as the competitors. The IDE2 probe was incubated with the 30-fold or 50-fold excess unlabeled competitors and 500 ng of the IDEF2-MBP fused protein. FIG. 10 and (b) of FIG. 12 show the result of the competition experiments. As shown in FIG. 10 and (b) of FIG. 12, IDEF2 predominantly recognized a CA[A/C]G(TTT) sequence (SEQ ID NO: 33 or 34) within IDE2.

[4] = target: T4, OsVP1 B3-domain fragment, MBP fusion (Oryza sativa, UniProt P37398 P37398:501-726); assay: EMSA; no specific binding; conditions: tags: MBP (pMAL-c2); label: labeled (EMSA probe)
T4 sequence: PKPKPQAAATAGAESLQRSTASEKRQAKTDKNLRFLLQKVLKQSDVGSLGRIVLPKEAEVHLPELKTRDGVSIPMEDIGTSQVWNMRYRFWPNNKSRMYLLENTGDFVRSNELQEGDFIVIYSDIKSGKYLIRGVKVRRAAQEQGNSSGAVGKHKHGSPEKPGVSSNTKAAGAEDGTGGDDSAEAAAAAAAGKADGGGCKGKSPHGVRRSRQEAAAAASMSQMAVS
Protocol: as §1

[5] = target: T1, AK072874 B3-domain fragment, MBP fusion; assay: EMSA; specific binding; conditions: tags: MBP (pMAL-c2); label: labeled (EMSA probe)
Protocol: as §1

[6] = target: T2, IDEF1 (AK107456) B3-domain fragment, …; assay: EMSA; specific binding; conditions: tags: MBP (pMAL-c2); label: labeled (EMSA probe)
Protocol: as §1

B1: IDE1 (dsDNA)
DNA 1: ATCAAGCATGCTTCTTGC
DNA 2: GCAAGAAGCATGCTTGAT
- binding result [1]: binds
- binding result [2]: binds

B2: IDE2 EMSA probe (dsDNA)
DNA 1: GAGAGTGGGTTGAACGGCAAGTTTCACGCTGTCACTATCGTCCTCG
DNA 2: CGAGGACGATAGTGACAGCGTGAAACTTGCCGTTCAACCCACTCTC
- binding result [3]: binds

B3: IDE2-IDE1x2 (tandemly duplicated IDE1 probe) (dsDNA)
DNA 1: AAGCTTGAATTCGATATCTTGAACGGCAAGTTTCACGCTGTCACTATCAAGCATGCTTCTTGCTTGAACGGCAAGTTTCACGCTGTCACTATCAAGCATGCTTCTTGCACGCGTCTCGAGTCGCGAATCG
DNA 2: CGATTCGCGACTCGAGACGCGTGCAAGAAGCATGCTTGATAGTGACAGCGTGAAACTTGCCGTTCAAGCAAGAAGCATGCTTGATAGTGACAGCGTGAAACTTGCCGTTCAAGATATCGAATTCAAGCTT
- binding result [4]: no binding
- binding result [5]: binds
- binding result [6]: binds
